Tests used:
[1] = biological target: Raptor, endogenous protein of 293T cells (UniProt Q8N122 1-1335); assay: co-immunoprecipitation from 293T cell lysates, western blot (FIG. 1E)
Method: (§1) Rictor interaction required the C-terminal portion of SAKT that encompass the cytoplasmic region.
(§2) Protein Analyses. For immunoblotting, cells were lysed in RIPA buffer (Cell Signaling Technology) supplemented with HALT™ protease and phosphatase inhibitor cocktails (Thermo Scientific). Western blot analysis was carried out according to standard methods (8). Equal amounts of total protein from lysates were subjected to SDS-PAGE, transferred to PVDF membrane (Invitrogen), and membranes were probed by overnight incubation with appropriate primary antibodies. Bound antibodies were visualized with HRP-conjugated secondary antibodies and ECL detection reagent (GE Healthcare) and quantification of protein bands (Multigauge V3.0, Fujifilm). For standard immunoprecipitation experiments, proteins were extracted by incubation on ice in IP Lysis Buffer and all protein extracts were pre-cleared with Protein-A/G agarose (Santa Cruz Biotechnology) and incubated with Protein A/G agarose bound with antibodies against FLAG M2 (Sigma), Rictor (#9476, Cell Signaling Technology), and SAKT (Santa Cruz Biotechnology) or control IgG from mouse, and rabbit at 4° C. Immunoprecipitates were washed four times with lysis buffer and boiled for 10 minutes in 1× LDS sample buffer (Invitrogen). The eluted proteins were immunoblotted with the antibodies indicated above. […]

[2] = biological target: mTor, endogenous protein of 293T cells (human, UniProt P42345 1-2549); assay: as above
Method: as §1, §2

[3] = biological target: mTor, endogenous protein of murine BM cells (mouse, UniProt Q9JLN9 1-2549); assay: co-immunoprecipitation from BM cell lysates, western blot (FIG. 1E)
Method: as §1, §2

[4] = biological target: Raptor, endogenous protein of murine BM cells (mouse, UniProt Q8K4Q0 1-1335); assay: as above
Method: as §1, §2

Raptor, endogenous protein of murine BM cells, sequence (Q8K4Q0 whole entry): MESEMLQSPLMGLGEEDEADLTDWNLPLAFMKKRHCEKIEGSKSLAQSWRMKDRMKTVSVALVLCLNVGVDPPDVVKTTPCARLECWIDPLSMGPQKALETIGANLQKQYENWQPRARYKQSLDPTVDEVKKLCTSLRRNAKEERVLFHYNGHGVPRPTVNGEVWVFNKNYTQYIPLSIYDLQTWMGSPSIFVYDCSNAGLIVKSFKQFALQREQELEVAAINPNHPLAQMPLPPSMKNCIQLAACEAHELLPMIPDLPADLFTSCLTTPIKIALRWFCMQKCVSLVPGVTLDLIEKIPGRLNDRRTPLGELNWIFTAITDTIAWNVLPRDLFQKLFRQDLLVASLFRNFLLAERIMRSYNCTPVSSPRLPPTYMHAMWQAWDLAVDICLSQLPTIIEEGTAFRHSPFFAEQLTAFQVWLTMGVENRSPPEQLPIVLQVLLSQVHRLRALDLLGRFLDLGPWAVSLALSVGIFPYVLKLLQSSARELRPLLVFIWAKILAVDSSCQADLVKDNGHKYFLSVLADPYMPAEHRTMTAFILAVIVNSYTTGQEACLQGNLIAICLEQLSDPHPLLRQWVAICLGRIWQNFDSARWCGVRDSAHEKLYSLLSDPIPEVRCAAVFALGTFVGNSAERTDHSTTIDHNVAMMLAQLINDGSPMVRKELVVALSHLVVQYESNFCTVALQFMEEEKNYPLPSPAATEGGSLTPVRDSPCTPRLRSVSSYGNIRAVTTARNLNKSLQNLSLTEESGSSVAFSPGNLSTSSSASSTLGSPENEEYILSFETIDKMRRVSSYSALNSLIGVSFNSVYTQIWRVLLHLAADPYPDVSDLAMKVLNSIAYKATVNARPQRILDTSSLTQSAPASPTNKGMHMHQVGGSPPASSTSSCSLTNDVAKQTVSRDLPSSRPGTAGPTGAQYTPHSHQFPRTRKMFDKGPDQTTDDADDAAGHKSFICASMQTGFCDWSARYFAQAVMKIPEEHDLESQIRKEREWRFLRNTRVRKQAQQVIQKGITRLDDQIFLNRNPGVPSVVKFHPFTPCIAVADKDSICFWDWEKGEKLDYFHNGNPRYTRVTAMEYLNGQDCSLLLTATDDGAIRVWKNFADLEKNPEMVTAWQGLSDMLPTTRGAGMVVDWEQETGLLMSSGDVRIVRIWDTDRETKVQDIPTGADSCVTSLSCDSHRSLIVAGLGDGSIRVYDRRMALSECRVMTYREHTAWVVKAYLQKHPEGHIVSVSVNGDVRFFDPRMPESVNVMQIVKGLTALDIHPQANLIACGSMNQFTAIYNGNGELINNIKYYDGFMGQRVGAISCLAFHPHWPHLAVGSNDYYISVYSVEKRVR
Raptor, endogenous protein of 293T cells, sequence (Q8N122 whole entry): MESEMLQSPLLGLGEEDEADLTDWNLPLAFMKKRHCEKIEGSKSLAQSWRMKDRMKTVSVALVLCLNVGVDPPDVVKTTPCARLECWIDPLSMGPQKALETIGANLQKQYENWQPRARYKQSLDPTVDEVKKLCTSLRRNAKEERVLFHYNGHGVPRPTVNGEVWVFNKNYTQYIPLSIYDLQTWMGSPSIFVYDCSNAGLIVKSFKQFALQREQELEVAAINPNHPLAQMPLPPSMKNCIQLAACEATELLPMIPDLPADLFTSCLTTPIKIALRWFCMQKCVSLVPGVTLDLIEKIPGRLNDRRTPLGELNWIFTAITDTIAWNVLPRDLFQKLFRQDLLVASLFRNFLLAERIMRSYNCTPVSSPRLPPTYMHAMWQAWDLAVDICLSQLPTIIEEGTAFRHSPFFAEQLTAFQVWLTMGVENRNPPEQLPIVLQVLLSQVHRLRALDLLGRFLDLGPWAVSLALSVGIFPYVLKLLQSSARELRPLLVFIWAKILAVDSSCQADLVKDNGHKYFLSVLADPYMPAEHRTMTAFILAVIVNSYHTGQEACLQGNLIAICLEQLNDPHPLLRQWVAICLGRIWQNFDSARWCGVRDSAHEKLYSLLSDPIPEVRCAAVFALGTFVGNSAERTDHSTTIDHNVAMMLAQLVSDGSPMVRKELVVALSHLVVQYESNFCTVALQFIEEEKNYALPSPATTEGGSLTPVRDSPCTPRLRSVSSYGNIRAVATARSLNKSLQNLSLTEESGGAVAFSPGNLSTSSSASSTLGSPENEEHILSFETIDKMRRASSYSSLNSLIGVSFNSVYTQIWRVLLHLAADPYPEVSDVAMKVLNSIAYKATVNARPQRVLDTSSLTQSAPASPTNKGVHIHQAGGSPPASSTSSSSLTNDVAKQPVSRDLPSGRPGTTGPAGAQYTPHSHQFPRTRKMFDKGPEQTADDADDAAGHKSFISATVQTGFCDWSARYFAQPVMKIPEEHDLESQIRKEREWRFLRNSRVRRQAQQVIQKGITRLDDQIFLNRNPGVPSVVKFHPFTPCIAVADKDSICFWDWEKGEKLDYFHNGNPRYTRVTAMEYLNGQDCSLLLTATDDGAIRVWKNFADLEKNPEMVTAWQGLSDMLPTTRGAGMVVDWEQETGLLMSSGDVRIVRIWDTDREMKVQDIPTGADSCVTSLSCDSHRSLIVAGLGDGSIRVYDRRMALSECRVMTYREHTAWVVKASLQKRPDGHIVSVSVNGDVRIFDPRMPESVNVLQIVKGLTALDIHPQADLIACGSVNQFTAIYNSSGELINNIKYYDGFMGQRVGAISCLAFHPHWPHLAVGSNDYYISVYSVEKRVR

B1: Suppressor of AKT (SAKT), endogenous protein of 293T cells (receptor, UniProt Q86TY3 28-774, looked up)
chain: FPKIERRREIAHVHAEKGQSDKMNTDDLENSSVTSKQTPQLVVSEDPMMMSAVPSATSLNKAFSINKETQPGQAGLMQTERPGVSTPTESGVPSAEEVFGSSQPERISPESGLAKAMLTIAITATPSLTVDEKEELLTSTNFQPIVEEITETTKGFLKYMDNQSFATESQEGVGLGHSPSSYVNTKEMLTTNPKTEKFEADTDHRTTSFPGAESTAGSEPGSLTPDKEKPSQMTADNTQAAATKQPLETSEYTLSVEPETDSLLGAPEVTVSVSTAVPAASALSDEWDDTKLESVSRIRTPKLGDNEETQVRTEMSQTAQVSHEGMEGGQPWTEAAQVALGLPEGETHTGTALLIAHGNERSPAFTDQSSFTPTSLMEDMKVSIVNLLQSTGDFTESTKENDALFFLETTVSVSVYESEADQLLGNTMKDIITQEMTTAVQEPDATLSMVTQEQVATLELIRDSGKTEEEKEDPSPVSDVPGVTQLSRRWEPLATTISTTVVPLSFEVTPTVEEQMDTVTGPNEEFTPVLGSPVTPPGIMVGEPSISPALPALEASSERRTVVPSITRVNTAASYGLDQLESEEGQEDEDEEDEEDEDEEEEDEEEDEEDKDADSLDEGLDGDTELPGFTLPGITSQEPGLEEGNMDLLEGATYQVPDALEWEQQNQGLVRSWMEKLKDKAGYMSGMLVPVGVGIAGALFILGALYSIKVMNRRRRNGFKRHKRKQREFNSMQDRVMLLADSSEDEF
notes: also called C14ORF37
- binding result [1]: no binding
- binding result [2]: no binding

B2: Suppressor of AKT (SAKT), endogenous protein of murine bone marrow (BM) cells (receptor, mouse, UniProt Q8BT18 48-775, looked up)
chain: FPKVERRETAQEYAEKEQSQKMNTDDQENISFAPKYMLQQMSSEAPMVLSEGPSEIPLIKVFSVNKESHLPGAGLLHPTSPGVYSSSEPVVSASEQEPGPSLLERMSSEHSLSKVMLTVAVSSPASLNPDQEGPYNSLSTQPIVAAVTDVTHGSLDYLDNQLFAAKSQEAVSLGNSPSSSINTKEPEIIKADAAMGTTVVPGVDSTGDMEPDRERPSEMAADDGQSTTTKYLVTIPNNFLTTEPTAGSILGDAKVTVSVSTAGPVSSIFNEEWDDTKFESISRGRPPEPGDNAETQMRTKPPHGTYESFEGTEESPSSTAVLKVAPGHLGGEPALGTALVTALGDERSPVLTHQISFTPMSLAEDPEVSTMKLFPSAGGFRASTQGDRTQLSSETAFSTSQYESVPQQEAGNVLKDITQERKMATQAMNTTSPVVTQEHMATIEVPRGSGEPEEGMPSLSPVPAEVADAELSRRGESLATPASTTVVPLSLKLTSSMEDLMDTITGPSEEFIPVLGSPMAPPAMTVEAPTISSALPSEGRTSPSISRPNTAASYGLEQLESEEVEDDEDEEDEEDEEEEEEDEEDEEDEEDKETDSLYKDFDGDTEPPGFTLPGITSQEPDIRSGSMDLLEVATYQVPETIEWEQQNQGLVRSWMEKLKDKAGYMSGMLVPVGVGIAGALFILGALYSIKVMNRRRRNGFKRHKRKQREFNSMQDRVMLLADSSEDEF
notes: Endogenous protein immunoprecipitated from murine BM cell lysates; also called C14ORF37
- binding result [3]: no binding
- binding result [4]: no binding

From patent US20170131280A1 (GENERAL HOSPITAL, published 2017)
